Test results: the supplement of paper PMC11811203

B1: THAP1; numbered along this chain (parent)
chain: MVQSCSAYGCKNRYDKDKPVSFHKFPLTRPSLCKEWEAAVRRKNFKPTKYSSICSEHFTPDCFKRECNNKLLKENAVPTIFLCTEPHDKKEDLLEPQEQLPPPPLPPPVSQVDAAIGLLMPPLQTPVNLSVFCDHNYTVEDTMHQRKRIHQLEQQVEKLRKKLKTAQQRCRRQERQLEKLKEVVHFQKEKDDVSERGYVILPNDYFEIVEVPA

Variants of: B1
Assay: THAP1 transcriptional activity (GFP+/GFP- enrichment relative to wild-type constructs) (ratio to WT); higher = more THAP1 activity (PSMB5 reporter activation)
Details: with PSMB5 promoter-GFP reporter
Method in brief: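 A site-saturation library of human THAP1 (residues 2–213, each changed to all 20 amino acids) was transduced by lentivirus at MOI ~0.3, in duplicate, into THAP1-knockout HEK-293T cells carrying mClover3 knocked in at endogenous PSMB5. After five days, BFP+ cells were sorted into GFP-dim and GFP-bright bins, and variants were counted by Illumina sequencing of genomic DNA amplicons. Activity is the replicate-mean bright/dim read fold change divided by the mean of wild-type synonymous constructs.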

THAP1 transcriptional activity: each site, then its substitutions
P212: Q 1.45; Y 1.42; I 1.75; N 1.15; E 0.535; G 0.939; L 1.42; D 0.943; C 0.673; F 0.548; S 1.34; H 2.31; M 1.4; V 1.99; K 0.974; W 0.968; R 0.594
E207: D 0.615; G 0.488; T 0.557; F 0.867; I 0.667; A 0.721; C 1.11; V 1.29; Y 1.02; R 0.5; H 0.501; P 0.59; S 0.559; N 0.625; Q 1.02; M 0.796; L 1.2
V209: W 0.757; P 0.814; Y 0.755; C 0.679; N 0.716; F 0.531; M 0.587; E 0.612; R 0.953; T 0.765; L 0.773; H 0.835; K 0.98; S 0.634; D 0.517; Q 1.67; I 0.823
E210: C 1.03; Y 1.39; V 1.06; F 0.823; W 0.686; R 0.747; S 0.594; P 0.35; L 0.744; Q 1.15; I 1.23; G 0.666; D 1.07; M 0.913; T 1.08; A 0.354
Y205: I 1.07; C 1.28; V 0.976; F 0.778; N 0.989; R 0.621; D 0.754; E 1.09; S 1.17; W 2.45; Q 1.51; P 0.805; L 2.1; G 1.84; K 0.717; A 1.86; M 1.5; H 1.38
D204: E 1.22; I 0.437; G 0.311; Q 0.749; M 0.901; R 0.547; H 0.501; C 0.753; V 1.39; A 1.26; P 0.777; S 1.82; Y 0.63; T 1.04; K 0.75; W 0.525; L 1.04
F206: S 1.09; K 1.08; W 1.27; P 0.832; E 1.11; C 1.5; V 1.41; I 1.27; H 1.05; N 0.873; D 1.24; Y 1.21; T 1.04; R 0.87; Q 0.86
N203: W 0.535; H 1.32; G 1.23; Y 1.02; I 1.01; P 0.855; M 0.934; R 0.497; E 1.14; V 0.886; S 1.54; F 0.728; D 0.653; T 1.15; Q 0.904
A213: G 0.677; Q 1.25; W 0.538; D 0.729; R 0.843; K 1.13; H 0.644; N 1.27; C 0.884; E 0.81; F 0.655; M 0.984; Y 0.711; L 0.907; I 0.974; V 0.455
I208: Y 1.14; K 0.59; Q 0.835; F 0.98; A 0.838; R 0.751; V 1.2; S 1.17; C 1.06; P 0.675; G 0.803; D 0.924; E 1.41; N 0.926; M 1.25; W 0.755
V211: H 1.29; T 0.876; I 1.34; L 1.38; F 1.01; S 1.03; W 0.56; R 0.811; G 0.936; Y 0.843; P 0.462; N 0.965; C 0.988
